Target: T1, HER2 on BT474 breast tumour cells (human, UniProt P04626 23-1255)
T1 construct: whole, on cells; also called HER2-positive BT474 cells
Assay: flow cytometry, cross-linking of NK92MI and BT474 cells (data not shown)

B1: Z199 scFv anti-NKG2A.C4bp(beta).Fc[knob]/2D3 VHH anti-HER2.C4bp(beta).Fc[hole] bispecific pseudo-IgG (bispecific antibody)
chain 1: RSQVKLQQSGGGLVKPGGSLKLSCAASGFTFSSYAMSWVRQSPEKRLEWVAEISSGGSYTYYPDTVTGRFTISRDNAKNTLYLEISSLRSEDTAMYYCTRHGDYPRFFDVWGAGTTVTVSSGGGGSGGGGSGGGGSQIVLTQSPALMSASPGEKVTMTCSASSSVSYIYWYQQKPRSSPKPWIYLTSNLASGVPARFSGSGSGTSYSLTISSMEAEDAATYYCQQWSGNPYTFGGGTKLEIKRAAASGAGGGGSSGAGGSAGGGGSSGGGGSAGGGGSIQEAPKPECEKALLAFQESKNLCEAMENFMQQLKESGMTMEELKYSLELKKAELKAKLLEPKSCDKTHTCPPCPAPELLGGPSVFLFPPKPKDTLMISRTPEVTCVVVDVSHEDPEVKFNWYVDGVEVHNAKTKPREEQYNSTYRVVSVLTVLHQDWLNGKEYKCKVSNKALPAPIEKTISKAKGQPREPQVYTLPPCRDELTKNQVSLWCLVKGFYPSDIAVEWESNGQPENNYKTTPPVLDSDGSFFLYSALTVDKSRWQQGNVFSCSVMHEALHNHYTQKSLSLSPGK
chain 2: not shown
notes: also called Z199/2D3
B1: binds.
